According to patent publication US10428327B2, “Compositions and methods for enhancing homologous recombination” (LIFE TECHNOLOGIES CORPORATION, priority 2016, dated 2019):
Oligonucleotides are written 5' to 3', each unit as a sugar letter and its base; * is a phosphorothioate linkage, no mark a phosphodiester; rarer units and linkages stand in square brackets, end groups in braces. Plain capitals give the bases only. d = 2'-deoxy (DNA); {P} = phosphate

B1: 70: unmodified 70-mer ssDNA, BFP point mutation, SEQ ID 50 (nucleic acid)
DNA: CCCGTGCCCTGGCCCACCCTCGTGACCACCCTGACCTACGGCGTGCAGTGCTTCAGCCGCTACCCCGACC
modifications: DNA, backbone not given here
B2: PS70: phosphorothioate 70-mer ssDNA, BFP point mutation, SEQ ID 51 (nucleic acid)
DNA: {P}-dC*dC*dCdGdTdGdCdCdCdTdGdGdCdCdCdAdCdCdCdTdCdGdTdGdAdCdCdAdCdCdCdTdGdAdCdCdTdAdCdGdGdCdGdTdGdCdAdGdTdGdCdTdTdCdAdGdCdCdGdCdTdAdCdCdCdCdGdA*dC*dC
B3: 32-3′: short dsDNA donor with 32-base 3′ overhangs, EmGFP, SEQ ID 100 and 101 (nucleic acid)
chain 1: AGAATTCTTGTCGTCATCGTCTTTGTAGTCAGGTGGTCACGAGGGTGGGCCAGGGCACGGGC
chain 2: GACTACAAAGACGATGACGACAAGAATTCTACGGCGTGCAGTGCTTCGCCCGCTACCCCGAC
modifications: DNA, backbone and methylation of C not given here; further chemistry not fully specified
B4: 45-3′: dsDNA donor with 45-base 3′ overhangs, annealed SEQ ID 95 and 96 (nucleic acid)
chain 1: GACTACAAAGACGATGACGACAAGAATTCTTACGGCGTGCAGTGCTTCAGCCGCTACCCCGACCACATGAAGCAGCAC
chain 2: AAGAATTCTTGTCGTCATCGTCTTTGTAGTCGGTCAGGGTGGTCACGAGGGTGGGCCAGGGCACGGGCAGCTTGCCGG
modifications: chemistry not fully specified
B5: 80: unmodified 80-mer ssDNA, BFP point mutation, SEQ ID 48 (nucleic acid)
DNA: GCTGCCCGTGCCCTGGCCCACCCTCGTGACCACCCTGACCTACGGCGTGCAGTGCTTCAGCCGCTACCCCGACCACATGA
modifications: DNA, backbone not given here
B6: PS100: phosphorothioate 100-mer ssDNA, BFP point mutation, SEQ ID 45 (nucleic acid)
DNA: {P}-dA*dC*dCdGdGdCdAdAdGdCdTdGdCdCdCdGdTdGdCdCdCdTdGdGdCdCdCdAdCdCdCdTdCdTdGdAdCdCdAdCdCdCdTdGdAdCdCdTdAdCdGdGdCdGdTdGdCdAdGdTdGdCdTdTdCdAdGdCdCdGdCdTdAdCdCdCdCdGdAdCdCdAdCdAdTdGdAdAdGdCdAdGdCdAdCdGdA*dC*dT
B7: 36-3′: dsDNA donor with 36-base 3′ overhangs, annealed SEQ ID 93 and 94 (nucleic acid)
chain 1: dA*dA*dGdAdAdTdTdCdTdTdGdTdCdGdTdCdAdTdCdGdTdCdTdTdTdGdTdAdGdTdCdGdGdTdCdAdGdGdGdTdGdGdTdCdAdCdGdAdGdGdGdTdGdGdGdCdCdAdGdGdGdCdAdCdG*dG*dG
chain 2: dG*dA*dCdTdAdCdAdAdAdGdAdCdGdAdTdGdAdCdGdAdCdAdAdGdAdAdTdTdCdTdTdAdCdGdGdCdGdTdGdCdAdGdTdGdCdTdTdCdAdGdCdCdGdCdTdAdCdCdCdCdGdAdCdC*dA*dC
modifications: further chemistry not fully specified
B8: PS90: phosphorothioate 90-mer ssDNA, BFP point mutation, SEQ ID 47 (nucleic acid)
DNA: GCAAGCTGCCCGTGCCCTGGCCCACCCTCGTGACCACCCTGACCTACGGCGTGCAGTGCTTCAGCCGCTACCCCGACCACATGAAGCAGC
modifications: 5' phosphate, modified ends, chemistry not fully specified
B9: 90: unmodified 90-mer ssDNA, BFP point mutation, SEQ ID 46 (nucleic acid)
DNA: B8 DNA
modifications: unmodified DNA

Assays:
Format in all cases: cell-based
[1] = system: HEK293 cells stably expressing eBFP; experiment: HDR assay, conversion of eBFP to GFP by flow cytometry; conditions: oligonucleotide length and modification, sequential delivery, 1 nt substitution, 48 hours
Source text: To generate a HEK293FT stable cell line expressing eBFP, an eBFP ORF was synthesized by GENEART® custom DNA synthesis (Thermo Fisher Scientific) and then cloned into pDONAR221 vector. Using GATEWAY® recombination technology (Thermo Fisher Scientific), the eBFP ORF was transferred to pLenti6.2-DEST Gateway Vector and then verified by sequencing. Lentivirus was generated using VIRAPOWER® kit as described in the manual. To generate stable cell line, HEK293FT cells were transduced with 0.1 MOI of Lentivirus expressing eBFP. Three days post transduction cells were selected on 5 μg/mL Blasticidine antibiotics for 2 weeks. Cells expressing eBFP were then collected and diluted to […] in complete medium and plated into 96 well plates for single cell clone. After 2 weeks clones were isolated and verified for eBFP expression by flow cytometer. In a reporter assay using a stable eBFP-expressing HEK293 cell line, the substitution of C to T in eBFP gene converts His67 to Tyr67, generating a GFP variant (Table 5).
(§1) To create homologous recombination (HR) assays, a series of gRNAs flanking the insertion site within the EmGFP gene were designed and synthesized (Table 4). Each individual gRNA was combined with GENEART™ […]™ Cas9 Nuclease to form the Cas9 protein/gRNA ribonucleoprotein complexes (Cas9 RNPs). The Cas9 RNPs were then used to transfect cells via NEON® electroporation. The genomic cleavage efficiency was then evaluated using the GENEART® Genomic Cleavage Detection kit at 48 hours post transfection. The gRNAs with highest editing efficiencies and also in close proximity to the insertion site were selected for the subsequent HR assays. For donor design of a single-stranded oligonucleotide, typically the mutation site was positioned at the center flanked by 30 to 50 nucleotides on each side. For asymmetric donor design, 30 nucleotides were placed on either the left or right arm and then 50 or 67 nucleotides on the right or left arm respectively, in both PAM and non-PAM strands. For design of a dsDNA oligonucleotide with single-stranded overhangs, the insertion element was overlapped in the center flanked by various lengths of ssDNA oligonucleotide on each side. By annealing two single-stranded oligonucleotides at 95° C. for 3 minutes, dsDNA donor molecules with either a 5′ protrusion or a 3′ protrusion were generated. To measure homologous recombination efficiency, the donor DNA was either co-transfected with Cas9 RNPs or delivered sequentially into cells via electroporation. At 48 hours post transfection, the gain of EmGFP function in reporter cell lines was determined by flow cytometric analysis with an Attune® NxT Acoustic Focusing Cytometer (Thermo Fisher Scientific). Alternatively, the genomic loci were PCR-amplified using the corresponding primers and then subjected to GENEART® Genomic Cleavage Detection assay or restriction digestion. The resulting PCR products were also subjected to TOPO cloning. Typically, 96 colonies were randomly picked for sequencing. The sequencing data were analyzed using VECTOR NTI ADVANCE® 11.5 software (Thermo Fisher Scientific).
For each homologous recombination assay, 1.5 μg of Cas9 protein and 360 ng of gRNA were added to Resuspension Buffer R to a final volume of 7 μl, but limiting the total volume of Cas9 protein plus gRNA to less than 1 μl. The gRNA could be diluted in Buffer R if the concentration was too high. Upon mixing, the sample was incubated at room temperature for 5 to 10 minutes to form Cas9 RNPs. Meanwhile, […]™ HEK293 cells expressing either eBFP or disrupted EmGFP were detached from culture flask with TRYPLE™ Express Enzyme and then counted. Aliquots of 1×10^6 cells were washed once with DPBS without Ca^2+ and Mg^2+ and the cell pellets were resuspended in 50 μl of Resuspension Buffer R. A 5 μl aliquot of cell suspension was mixed with 7 μl of Cas9 RNPs. […] The electroporated cells were transferred to 300 μl of […]. […]

[2] = system: EmGFP gene in GRIPTITE HEK293 cells; experiment: Sequencing analysis of FLAG tag/EcoRI insertion with +5 gRNA; conditions: sequential delivery, 48 hours
Procedure: In order to understand the polarity of dsDNA donor with single stranded overhangs, we inserted a FLAG epitope tag along with an EcoRI site into a separate locus where the +5 gRNA was targeting the bottom strand of EmGFP gene (see Table 21). The Cas9 RNPs were first delivered into […]™ HEK293 cells, followed by the delivery of ssDNA donor, or short dsDNA donors with 32-base single stranded overhangs at either 5′ or 3′ end. Samples in the absence of gRNA served as controls. At 48 hours post transfection, the genomic loci were amplified by PCR. The resulting PCR fragments were subjected to restriction digestion with EcoRI (data not shown) or subjected to sequencing analysis. The integration efficiency of FLAG epitope tag along with an EcoRI was approximately 34% using dsDNA donor with 3′ overhangs and 20% using ssDNA donor.

[3] = system: eBFP locus in HEK293 cells expressing eBFP; experiment: EcoRI restriction digestion of PCR-amplified eBFP locus (FLAG tag/EcoRI insertion); conditions: FIG. 11B, length of 3′ overhang, 48 hours
Source text: FIG. 11. Insertion of a FLAG tag along with an EcoRI site using dsDNA donor with single-stranded overhangs. (A) Various donor DNA molecules containing a 30-base FLAG tag along with an EcoRI site were designed and synthesized, including single-stranded DNA donor (ssDNA), blunt-end dsDNA donor (blunt), dsDNA donor with 5′ overhang (5′), dsDNA donor with 3′ overhang (3′). The length of overhangs varied from 6 nucleotides (6), 15 nucleotides (15) to 30 nucleotides (30). The 3′ and 5′ ends of the oligonucleotides harbored two consecutive phosphorothioate-modified bases (Table 4). The short dsDNA donors with and without overhangs were prepared by annealing two short DNA oligonucleotides. […] At 48 hours post transfection, the eBFP locus was PCR-amplified. The resulting PCR fragments were analyzed by the genomic cleavage and detection assays to determine the percentage of Indel or subjected to restriction digestion with EcoRI to determine the percentage of digestion. (B) Length of 3′ overhang. […] Alternatively, a dsDNA donor with 30-base 3′ overhang but without phosphorothioate modification (30-3′n) was used. The percentage of digestion with EcoRI was determined at 48 hours post transfection. (C) Dose effect. […] The eBFP loci were PCR-amplified. The resulting PCR fragments were analyzed by EcoRI digest. (D) Sequencing verification. The PCR fragments were cloned into E. coli and 192 clones were randomly picked for sequencing. The relative percentage of wild type (wt), NHEJ, and HDR clones derived from either ssDNA donor (ssDNA) or dsDNA with 3′ overhangs (3′ overhang) was plotted. The white rectangles represented the population of clones that contained the insert but with a point mutation. Examples of edited clones were shown in (E) (not representing the actual percentages of NHEJ and HDR). The underlined sequences represented the FLAG tag along with an RI site. FIG. 11 discloses SEQ ID NOs: 15-24, respectively, from top to bottom.
as §1, with “The sequencing data were analyzed using VECTOR NTI ADVANCE® 11.5 software (Thermo Fisher Scientific).” left out

Molecule | Avg (% GFP+ cells) [1] | further results
50: unmodified 50-mer ssDNA, BFP point mutation, SEQ ID 54 (DNA CCCACCCTCGTGACCACCCTGACCTACGGCGTGCAGTGCTTCAGCCGCTA; DNA, backbone not given here) [compound 50] | 14.4% | –
B1 | 34.7% | –
B2 | 39.2% | –
B3 | – | Relative % HDR (integration of FLAG epitope tag along with EcoRI) [2]: 34.2%; Relative % NHEJ [2]: 54.6%; Relative % wt [2]: 11.1%; Relative % HDR (integration of FLAG epitope tag along with EcoRI) ([2]; listed as dsDNA donor with 3′ overhangs): approximately 34%
B4 | – | Avg (% digestion) [3]: 37.0%
B5 | 38.4% | –
B6 | 38.4% | –
B7 | – | Avg (% digestion) [3]: 41.7%
B8 | 38.8% | –
B9 | 32.8% | –
